Our source for the Kd values is paper PMC7367173.

For data set [1], the target named is T1, ProQ NTD (FinO domain) (Escherichia coli, UniProt P45577 1-130).
T1 sequence: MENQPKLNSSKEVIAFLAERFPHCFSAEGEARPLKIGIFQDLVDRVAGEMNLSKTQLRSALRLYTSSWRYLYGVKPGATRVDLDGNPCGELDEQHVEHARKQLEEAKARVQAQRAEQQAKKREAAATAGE
Kind of data set: EMSA. For orientation: Mobility shift assays separate free from complexed probe on a gel.

For data set [2], the target named is Hfq (Escherichia coli, UniProt P0A6X3 1-102). Briefly: filter binding.
Hfq, sequence (P0A6X3 whole entry): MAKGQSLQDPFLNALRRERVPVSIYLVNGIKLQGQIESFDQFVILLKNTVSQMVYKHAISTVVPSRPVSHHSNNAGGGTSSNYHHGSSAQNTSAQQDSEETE
For data set [3], the target named is T2, ProQ full-length (Escherichia coli, UniProt P45577 1-232).
T2 sequence: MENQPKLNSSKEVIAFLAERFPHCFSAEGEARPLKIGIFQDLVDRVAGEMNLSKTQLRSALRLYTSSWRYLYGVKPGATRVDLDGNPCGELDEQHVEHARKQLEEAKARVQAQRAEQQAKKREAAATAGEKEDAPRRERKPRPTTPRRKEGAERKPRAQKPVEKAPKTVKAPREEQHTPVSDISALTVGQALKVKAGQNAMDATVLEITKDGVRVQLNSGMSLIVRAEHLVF
Kind of data set: EMSA.

Broadly, the Kd is the equilibrium constant for the complex coming apart. Read a low Kd as higher affinity.

B1: gapA-3'-AtoU (structured_RNA)
RNA: GGACCUGAUCGCUCACAUCUCCAAAUAAGUUGAGAUGACACUGUGAUCUUUUUUGAGCGACUUCGGUCGCUCUUUUUUUU
In turn, B1 registered a Kd in data set [1] of 18 nM. That is a double-digit nanomolar value.

B2: malM-3'-4U (structured_RNA)
RNA: GCUUUAUCAGCAGUGUAAAAGGCAAGGGGUAAUUACGCCCCACAGUGCUGAUUUUGCAACAACUGGUGCGUCUCCUGGCGCACCUUUU
In data set [1], B2 showed a Kd of 27 ± 11 nM.

B3: malM-3'-bulge (structured_RNA)
RNA: GCUUUAUCAGCAGUGUAAAAGGCAAGGGGUAAUUACGCCCCACAGUGCUGAUUUUGCAACAACUGGUGAAACGUCUCCUGGCGCACCUUUUUUU
With B3, in data set [1], the dissociation constant Kd is 9 ± 2.5 nM.

B4: hupB-3'-RtoU (structured_RNA)
RNA: GGUAAACUAAGCGUUGUCCCCAGUGGGGAUGUGACGAAGUUCUUUGGCGCAUCUACUGAUGUGCCUUUUUU
For the molecule B4, the figures for the Kd in data set [1] and in data set [2] were 29 ± 7.2 nM and 1.9 ± 0.75 nM, respectively.

B5: lpp-5'-mut (structured_RNA)
RNA: GCUACAUGGAGAUUAACUCAAUCUAGAGGGUAUUAAUAAUGAAAGCUACUAAACUGGUACUGGGCGCGGUAAUCCCGCGCCCUUUU
In turn, B5 registered a Kd in data set [3] of 3 ± 1.3 nM.

B6: hupA-5'-mut (structured_RNA)
RNA: GCGAAAAAAAGUGGCUAUCGGUGCGUGUAUGCAGGAGAGUGCUAUUCUGGCAUUUCCGUCGCACUCGAUGCUUAGCAAGCGAUAAACACAUCGUAAGGAUAACUUACGUUUU
For the molecule B6, the Kd in data set [1] was 16 ± 4.7 nM; in data set [3] it was 14 ± 8 nM.

B7: cspE-3' (structured_RNA)
RNA: GUAAGAUACGUCAGCAAGAAUUCAAAACCCGCUUAAUCAGCGGGUUUUUUUU
On to B7, for which the dissociation constant (Kd) in data set [1] was 4.5 ± 1.5 nM; in data set [3], 13 ± 4.5 nM.

B8: cspE-3'-AtoU (structured_RNA)
RNA: GUAAGAUACGUCAGCAAGAAUUCUUUUCCCGCUUAAUCAGCGGGUUUUUUUU
As to B8, the Kd in data set [1] is 100 ± 51 nM; in data set [2], 1.7 ± 0.88 nM.

B9: cspE81-3' (structured_RNA)
RNA: GGCCCUUCUGCUGCAAACGUAAUCGCUCUGUAAGAUACGUCAGCAAGAAUUCAAAACCCGCUUAAUCAGCGGGUUUUUUUU
As to B9, the equilibrium dissociation constant (Kd) was 7.6 ± 4.5 nM in data set [1] and 47 ± 11 nM in data set [2].

B10: cspE81-3'-AtoU (structured_RNA)
RNA: GGCCCUUCUGCUGCAAACGUAAUCGCUCUGUAAGAUACGUCAGCAAGAAUUCUUUUCCCGCUUAAUCAGCGGGUUUUUUUU
Turning to B10, in data set [1], the Kd is 17 ± 4.6 nM.

B11: malM-3'-AA (structured_RNA)
RNA: GCUUUAUCAGCAGUGUAAAAGGCAAGGGGUAAUUACGCCCCACAGUGCUGAUUUUGCAACAACUGGUAAGUCUCCUGGCAAACCUUUUUUU
Take B11: in data set [1], binding was put at a Kd of 6.6 ± 1.4 nM.

B12: malM-3'-AtoU (structured_RNA)
RNA: GCUUUAUCAGCAGUGUAAAAGGCAAGGGGUAAUUACGCCCCACAGUGCUGAUUUUGCUUCUUCUGGUGCGUCUCCUGGCGCACCUUUUUUU
Molecule B12 returned a Kd in data set [1] of 5 ± 1.8 nM.

B13: malM-3' (structured_RNA)
RNA: GCUUUAUCAGCAGUGUAAAAGGCAAGGGGUAAUUACGCCCCACAGUGCUGAUUUUGCAACAACUGGUGCGUCUCCUGGCGCACCUUUUUUU
As for B13, the Kd is 12 ± 4.8 nM in data set [1], 12 ± 5.3 nM in data set [3] and 22 ± 7 nM in data set [2].

B14: malM-3'-UU (structured_RNA)
RNA: GCUUUAUCAGCAGUGUAAAAGGCAAGGGGUAAUUACGCCCCACAGUGCUGAUUUUGCAACAACUGGUUUGUCUCCUGGCUUACCUUUUUUU
Take B14: binding in data set [1] was put at a Kd of 8.7 ± 2.1 nM.

B15: infA-3'-AtoU (structured_RNA)
RNA: GUCGCUGAUUGUUUUACCGCCUGAUGGGCGAAGAGAAAGAACGAGUUUUUGGUCGGUUUAACCGGCCUUUUUAU
As to B15, the dissociation constant (Kd) in data set [1] is 32 ± 13 nM; in data set [2], 1.2 ± 0.55 nM.

B16: malM-3'-6U (structured_RNA)
RNA: GCUUUAUCAGCAGUGUAAAAGGCAAGGGGUAAUUACGCCCCACAGUGCUGAUUUUGCAACAACUGGUGCGUCUCCUGGCGCACCUUUUUU
As for B16, in data set [1], binding was put at a Kd of 7.8 ± 1.2 nM.

B17: malM-3'-5U (structured_RNA)
RNA: GCUUUAUCAGCAGUGUAAAAGGCAAGGGGUAAUUACGCCCCACAGUGCUGAUUUUGCAACAACUGGUGCGUCUCCUGGCGCACCUUUUU
The molecule B17 showed a Kd in data set [1] of 9.7 ± 1.5 nM.
